Assays:
[1] = target: purified HCV NS5B protein (genotype 1b) from Mikrogen (Hepatitis C virus genotype 1b)
[2] = target: NS5B CD4 peptide … presented by MHC of C57BL/6 mice (Hepatitis C virus)
[3] = target: NS5B CD8 peptide … presented by MHC of C57BL/6 mice (Hepatitis C virus)
[4] = target: NS3 CD8 peptide … presented by MHC of C57B1 mice (Hepatitis C virus)
[5] = target: purified HCV NS3 protein (genotype 1b) from Mikrogen (Hepatitis C virus genotype 1b)
[6] = target: NS3 CD4 peptide … presented by MHC of C57B1 mice (Hepatitis C virus)
[7] = target: NS4B CD4 peptide … presented by MHC of Balb/c mice (Hepatitis C virus)
[8] = target: NS4B CD8 peptide … presented by MHC of Balb/c mice (Hepatitis C virus)
[9] = target: purified HCV NS4 protein (genotype 1b) from Mikrogen (Hepatitis C virus genotype 1b)
[10] = target: NS3 CD8 peptide … presented by MHC of C57B1 mice (Hepatitis C virus); remark: listed apart in the source
[11] = target: NS3 CD4 peptide … presented by MHC of C57B1 mice (Hepatitis C virus); remark: listed apart in the source
[12] = target: NS3 CD8 peptide … presented by MHC of C57B1 mice (Hepatitis C virus); remark: listed apart in the source
[13] = target: NS3 CD4 peptide … presented by MHC of C57B1 mice (Hepatitis C virus); remark: listed apart in the source

Substance | IFNγ-producing T cells, intracellular cytokine staining (frequency (unit not given)) [1] | IFNγ-producing T cells, intracellular cytokine staining (frequency (unit not given)) [2] | IFNγ-producing T cells, intracellular cytokine staining (frequency (unit not given)) [3] | IFNγ-producing T cells, intracellular cytokine staining (% of CD8+ cells (unit from paragraph 162)) [4] | IFNγ-producing T cells, intracellular cytokine staining (frequency (unit not given)) [5] | IFNγ-producing T cells, intracellular cytokine staining (frequency (unit not given)) [6] | IFNγ-producing T cells, intracellular cytokine staining (frequency (unit not given)) [7] | IFNγ-producing T cells, intracellular cytokine staining (frequency (unit not given)) [8] | IFNγ-producing T cells, intracellular cytokine staining (frequency (unit not given)) [9] | IFNγ-producing T cells, intracellular cytokine staining (frequency (unit not given)) [4] | intracellular cytokine staining of IFNγ and IL2 (fold over the Core 191 group) [10] | intracellular cytokine staining of IFNγ and IL2 (fold over the Core 191 group) [11] | intracellular cytokine staining (fold over the Core 191 group) [12] | intracellular cytokine staining (fold over the Core 191 group) [13]
splenocytes of C57BL mice immunised with DNA encoding polyprotein HCV 530 (NS5B-Core-NS3-NS4B) (cells without a defined receptor) | 0.06 | 0.7 | 0.12 | 4.89 | 0.15 | 0.21 | 0.1 | 0.37 | 0.17 | – | – | – | – | –
splenocytes of C57BL mice immunised with DNA encoding polyprotein HCV 500 (Core-NS3-NS4B-NS5B) (cells without a defined receptor) | 0.14 | 0.43 | 0.35 | 5.54 | 0.27 | 0.38 | 0.1 | 0.6 | 0.09 | – | – | – | – | –
splenocytes of C57BL mice immunised with DNA encoding NS3 alone (cells without a defined receptor) | – | – | – | 4.4 | 0.29 | 0.24 | – | – | – | – | – | – | – | –
splenocytes of C57BL mice immunised with DNA encoding polyprotein HCV 520 (NS4B-NS5B-Core-NS3) (cells without a defined receptor) | 0.09 | 0.18 | 0.08 | 3.32 | 0.14 | 0.28 | 0.05 | 0.33 | 0.08 | – | – | – | – | –
splenocytes of C57BL mice immunised with DNA encoding polyprotein HCV 501 (Core (66-191)-(1-65)-NS3-NS4B-NS5B) (cells without a defined receptor) | 0.03 | 0.13 | 0.09 | – | 0.05 | 0.08 | 0.06 | 0.13 | 0.09 | 0.16 | – | – | – | –
T cells of C57BL mice immunised with gold beads co-coated with p7313ieNS3, p7313ieNS5B and p7313ieCore151 (cells without a defined receptor) | – | – | – | – | – | – | – | – | – | – | 2 | 2 | – | –
splenocytes of mice immunised with DNA encoding NS4B as single antigen (cells without a defined receptor) | – | – | – | – | – | – | 0.18 | 2.04 | 0.17 | – | – | – | – | –
T cells of C57BL mice immunised with gold beads co-coated with p7313ieNS3/NS4B/NS5B triple fusion together with core 151 (cells without a defined receptor) | – | – | – | – | – | – | – | – | – | – | – | – | 2 | 2
splenocytes of mice immunised with DNA encoding NS5B as single antigen (cells without a defined receptor) | 0.1 | 0.26 | 1.67 | – | – | – | – | – | – | – | – | – | – | –
splenocytes of C57BL mice immunised with DNA encoding polyprotein HCV 510 (NS3-NS4B-NS5B-Core) (cells without a defined receptor) | 0.1 | 0.29 | 0.11 | 3.95 | 0.17 | 0.29 | 0.09 | 0.34 | 0.09 | – | – | – | – | –

— patent US20090104231A1
